Reference: patent publication US12540197B2, “Anti-tissue factor antibodies and antibody conjugates, compositions comprising anti-tissue factor antibodies or antibody conjugates, and methods of making and using anti-tissue factor antibodies and antibody conjugates” (SUTRO BIOPHARMA, INC., priority 2023, dated 2026)

B1: 2842-B01 HC3/LC1 (antibody)
heavy: MEVQLVESGGGLVQPGGSLRLSCAASGFSISSYDMSWVRQAPGKGLEWIGIIGSNGRTYYPDSVKGRFTISRDNSKNTVTLQMNSLRAEDTAVYYCARGLYDGTGNIWGQGTLVTVSSASTKGPSVFPLAPSSKSTSGGTAALGCLVKDYFPEPVTVSWNSGALTSGVHTFPAVLQSSGLSLSSVVTVPSSSLGTQTYICNVNHKPSNTKVDKKVEPKSCDKTHTCPPCPAPELLGGPSVFLFPPKPKDTLMISRTPEVTCVVVDVSHEDPEVKFNWYVDGVEVHNAKTKPREEQYNSTYRVVSVLTVLHQDWLNGKEYKCKVSNKALPAPIEKTISKAKGQPREPQVYTLPPSREEMTKNQVSLTCLVKGFYPSDIAVEWESNGQPENNYKTTPPVLDSDGSFLYSKLTVDKSRWQQGNVFSCSVMHEALHNHYTQKSLSLSPGK
light: MDLQMTQSPSSLSASVGDRVTITCRASQSVYGNNWLSWYQQKPGKAPKLLIYGASKLASGVPSRFSGSGSGTQFTLTISSLQPEDFATYYCQGTYYSGDWYFAFGQGTKVEIKRTVAAPSVFIFPPSDEQLKSGTASVVCLLNNFYPREAKVQWKVDNALQSGNSQESVTEQDSKDSTYSLSSTLTLSKADYEKHKVYACEVTHQGLSSPVTKSFNRGEC
modifications: conjugated to LP1 at Y180/F404
B2: 2842-G04 HC2/LC2 (antibody)
heavy: MQVQVQESGPGLVKPPGTLSLTCAVSGFSLSYYGVSWVRQPPGKGLEWIGTIDSSGRTYYNPSLKSRVTISNDNAPNTVSLKLSSVTAADTAVYYCARDFYGWNSGALDIWGQGTLVTVSSASTKGPSVFPLAPSSKSTSGGTAALGCLVKDYFPEPVTVSWNSGALTSGVHTFPAVLQSSGLSLSSVVTVPSSSLGTQTYICNVNHKPSNTKVDKKVEPKSCDKTHTCPPCPAPELLGGPSVFLFPPKPKDTLMISRTPEVTCVVVDVSHEDPEVKFNWYVDGVEVHNAKTKPREEQYNSTYRVVSVLTVLHQDWLNGKEYKCKVSNKALPAPIEKTISKAKGQPREPQVYTLPPSREEMTKNQVSLTCLVKGFYPSDIAVEWESNGQPENNYKTTPPVLDSDGSFLYSKLTVDKSRWQQGNVFSCSVMHEALHNHYTQKSLSLSPGK
light: MDLQLTQSPSTLSASVGDRVTITCRASQSVYSNKYLSWYQQKPGKAPKLLIYKASTLASGVPSRFSGSGSGTEFTLTISSLQPDDFATYYCAAAYSDDSDTAFGQGTKVEIKRTVAAPSVFIFPPSDEQLKSGTASVVCLLNNFYPREAKVQWKVDNALQSGNSQESVTEQDSKDSTYSLSSTLTLSKADYEKHKVYACEVTHQGLSSPVTKSFNRGEC
modifications: conjugated to LP1 at Y180/F404
B3: 2842-B01 HC1/LC1 (antibody, V domains shown)
VH: MQVQVVESGGGLVKPGGSLRLSCAASGFSISSYDMSWIRQAPGKGLEWIGIIGSNGRTYYADSVKGRFTISRNTNENTVYLQMNSLRAEDTAVYYCARGLYDGTGNIWGQGTLVTVSS
VL: MDLQMTQSPSSLSASVGDRVTITCRASQSVYGNNWLSWYQQKPGKAPKLLIYGASKLASGVPSRFSGSGSGTQFTLTISSLQPEDFATYYCQGTYYSGDWYFAFGQGTKVEIK
B4: 2842-B01 HC1/LC2 (antibody, V domains shown)
VH: MQVQVVESGGGLVKPGGSLRLSCAASGFSISSYDMSWIRQAPGKGLEWIGIIGSNGRTYYADSVKGRFTISRNTNENTVYLQMNSLRAEDTAVYYCARGLYDGTGNIWGQGTLVTVSS
VL: MELVMTQSPPTLSLSPGERVTLSCRASQSVYGNNWLSWYQQKPGQAPRLLIYGASKLATSIPARFSGSGSGTQFTLTISSLQPEDFAVYYCQGTYYSGDWYFAFGQGTKVEIK

Tests used:
cynomolgus TF = assay: Biacore off-rate and kinetic binding, cynomolgus TF; settings: Table 11, humanized rabbit antibodies; 100 nM antigen, 25° C.
Chain of cynomolgus TF (as listed by the source): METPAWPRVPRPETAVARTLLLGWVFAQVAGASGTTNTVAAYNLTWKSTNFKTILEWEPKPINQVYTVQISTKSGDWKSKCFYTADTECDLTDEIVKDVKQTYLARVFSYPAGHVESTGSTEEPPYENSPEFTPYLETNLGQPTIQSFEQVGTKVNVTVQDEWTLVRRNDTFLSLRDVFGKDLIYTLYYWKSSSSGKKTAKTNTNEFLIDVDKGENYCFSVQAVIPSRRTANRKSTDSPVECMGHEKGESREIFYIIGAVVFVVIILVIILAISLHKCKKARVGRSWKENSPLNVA
Method: (§1) Anti-Fc polyclonal antibodies were immobilized onto a CM4 chip (Cytiva #BR100534) using amine coupling chemistry (Human Antibody Capture Kit, Cytiva #BR100839). The immobilization steps were carried out at a flow rate of 25 μL/min in 1×HBS-EP+buffer (Cytiva #BR100669). The sensor surfaces were activated for 7 min with a mixture of N-hydroxysuccinimide (NHS, 0.05 M) and 1-ethyl-3-(3-dimethylaminopropyl)-carbodiimide (EDC, 0.2 M). The anti-Fc polyclonal antibodies were injected over all 4 flow cells at a concentration of 25 μg/mL in 10 mM sodium acetate, pH 4.5, for 7 min. Ethanolamine (1 M, pH 8.5) was injected for 7 min to block any remaining activated groups. Approximately 6,000 response units (RU) of capture antibody was immobilized on each flow cell.
(§2) Off-rate and kinetic binding experiments were performed at 25° C. using 1×HBS-EP+buffer. Antibodies were injected over the anti-Fc surface at a concentration of 3 μg/mL for 12 seconds at a flow rate of 10 μL/min on flow cells 2, 3 and 4, followed by a buffer wash for 30 seconds at the same flow rate. Single point off-rate analysis was carried out using an antigen concentration of 100 nM. […] After capturing ligand (antibody) on the anti-Fc surface, the analyte (human TF, Lake Pharma; cynomolgus TF, Sino Bio #90885-C08H; mouse TF, R&D Systems #3178-PA) was bound for 180 seconds, followed by a 420 second dissociation phase at a flow rate of 50 μL/min. Between each ligand capture and analyte binding cycle, regeneration was carried out using 2 injections of 10 mM glycine pH 2.0 for 30 seconds at 30 μL/min, followed by a 30 second buffer wash step.
(§3) The data were fit with the Biacore T200 Evaluation software, using a 1:1 Langmuir binding model. KD (affinity, nM) was determined as a ratio of the kinetic rate constants calculated from the fits of the association and dissociation phases.
(§4) Anti-Fc polyclonal antibodies were immobilized onto a CM4 chip (Cytiva #BR100534) using amine coupling chemistry (Human Antibody Capture Kit, Cytiva #BR100839). The immobilization steps were carried out at a flow rate of 25 μL/min in 1×HBS-EP+buffer (Cytiva #BR100669). The sensor surfaces were activated for 7 min with a mixture of NHS (0.05 M) and EDC (0.2 M). The Anti-Fc antibodies were injected over all 4 flow cells at a concentration of 25 ug/ml in 10 mM sodium acetate, pH 4.5, for 7 min. Ethanolamine (1 M, pH 8.5) was injected for 7 min to block any remaining activated groups. Approximately 6,000 response units (RU) of capture antibody was immobilized on each flow cell. Off-rate and kinetic binding experiments were performed at 25° C. using 1×HBS-EP+buffer. Antibodies or ADCs were injected over the anti-Fc surface at a concentration of 3 μg/mL for 12 seconds at a flow rate of 10 μL/min on flow cells 2, 3 and 4, followed by a buffer wash for 30 seconds at the same flow rate. […] After capturing ligand (antibody) on the anti-Fc surface, the analyte (human TF, Lake Pharma; cynomolgus TF, Sino Bio #90885-C08H; mouse TF, R&D Systems #3178-PA) was bound for 180 seconds, followed by a 420 second dissociation phase at a flow rate of 50 μL/min. Between each ligand capture and analyte binding cycle, regeneration was carried out using 2 injections of 10 mM Glycine pH 2.0 for 30 seconds at 30 μL/min, followed by a 30 second buffer wash step. The data was fit with the Biacore T200 Evaluation software, using a 1-1 Langmuir binding model. KD (affinity, nM) was determined as a ratio of the kinetic rate constants calculated from the fits of the association and dissociation phases.

[1] = DSF protein thermal shift assay (melting temperatures TM1/TM2); assay type: physicochemical; settings: Table 8, humanized rabbit antibodies; TM2 = Fab domain
Method: (§5) A protein thermal shift assay was carried out by mixing the protein to be assayed with an environmentally sensitive dye (SYPRO Orange, Life Technologies #S-6650) and monitoring the fluorescence of the mixture in real time as it underwent controlled thermal denaturation. Protein solutions between 0.2-2 mg/mL were mixed at a 1:1 volumetric ratio with a solution of SYPRO Orange solution diluted 250-fold in PBS+10% sucrose. 10 μL aliquots of the protein-dye mixture were dispensed in quadruplicate in a 384-well microplate (Bio-Rad #MSP-3852). The plate was sealed with an optically clear sealing film (Bio-Rad #MSB-1001) and placed in a 384-well plate real-time thermocycler (Bio-Rad CFX384 Real Time System). The protein-dye mixture was heated from 25° C. to 95° C., at increments of 0.2° C. per cycle, allowing 3 seconds of equilibration at each temperature before taking a fluorescence measurement. At the end of the experiment, the transition melting temperatures (TM1 and TM2) were determined using the Bio-Rad CFX manager software. TM1 represents the melting temperature of the Fc domain. TM2 represents the melting temperature of the Fab domain.
as §5, with “solutions at 1” for “solutions between 0.2-2”, “a 1-1” for “a 1:1”, “sucrose. 5” for “sucrose. 10”

human TF = biological target: T1, human TF (Homo sapiens, UniProt P13726); assay: Biacore off-rate and kinetic binding, human TF; settings: Table 11, humanized rabbit antibodies; 100 nM antigen, 25° C.
T1 construct: purchased Lake Pharma
T1 sequence (P13726 33-295): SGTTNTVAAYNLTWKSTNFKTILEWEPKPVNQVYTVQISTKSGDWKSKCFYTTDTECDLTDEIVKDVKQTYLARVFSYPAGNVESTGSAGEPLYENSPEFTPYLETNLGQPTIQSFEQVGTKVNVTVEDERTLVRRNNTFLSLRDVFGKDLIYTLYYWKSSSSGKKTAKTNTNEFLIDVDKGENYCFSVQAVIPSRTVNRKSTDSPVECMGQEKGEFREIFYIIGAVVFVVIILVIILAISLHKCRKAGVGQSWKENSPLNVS
Method: as §1, §2, §3, §4

| Molecule | Biacore cynomolgus TF single point off-rate kinetics kd (cynomolgus TF) [s⁻¹] | DSF TM2 (° C.) [1] [°C] | Biacore human TF single point off-rate kinetics kd (human TF) [s⁻¹] |
| --- | --- | --- | --- |
| B1 | 0.00187 | 86.5 | 0.000416 |
| B2 | 0.0017 | 80.2 | 0.000736 |
| B3 | 0.00352 | 87.3 | 0.000727 |
| B4 | 0.00142 | 82.4 | 0.000691 |
